Data published in a protein production outcome set (Wang et al. 2014).

Experiment: label from the status in PepcDB records

| Sequence | protein production |
| --- | --- |
| MRLLIAGRLFFGLGLALWALGAGPSPARAAGMSLIRDAEIENTIAMIATPLLRAASIGDRAITFRLINDDTINAFATTEMRVFVYTGLFLKTEGPDELKGVIAHEMGHLAGGHLLRMKDEMANASMTALVGMLAGAAAGIASGRGDVGSAVMMGTNQAAMRGFLTFSRTQESSADSFAMRMLDATGQSAAGMLKFFRKLGDQEALITASQDPYVRTHPLTRDRITAVADHVAHSRFSDVPPSPAEVLAYQRAKAKLMAFLKSTGATLAAYPATDRSVAARYARAIAYYRAGDLGRALPLIDGLIAEDPNDPYFEELRGQMLFENQRLREALGSYTKAARLAPTEPLILVSLAHVQVELGDRPLLENALTNLNAALGLDPTNSFAWRQMANASGKLGDEAMAAYYLAEMALSQGDPREALAHAKRAEGRIPKGSPQGLRLQDLIAEAERQKKRQEDRD | failed |
| MRLMIIFDLPVETSEERKEYRKFRKNLINEGFIMIQYSVYVRVCVNKKSAEFTEKRIESFLPSKGVVQSLILTEKQYNDMHFLLGKKIKEVRNSAERTIIL | failed |
| MRLSPAPLKLSRTPALLALALPLAAALAFSDETLDKVPKSEGYCSRILRAQGTRREGYTEFSLRVEGDPDFYKPGTSYRVTLSAAPPSYFRGFTLIALRENREGDKEEDHAGTFQIIDEEETQFMSNCPVAVTESTPRRRTRIQVFWIAPPAGTGCVILKASIVQKRIIYFQDEGSLTKKLCEQDSTFDGVTDKPILDCCACGTAKYRLTFYGNWSEKTHPKDYPRRANHWSAIIGGSHSKNYVLWEYGGYASEGVKQVAELGSPVKMEEEIRQQSDEVLTVIKAKAQWPAWQPLNVRAAPSAEFSVDRTRHLMSFLTMMGPSPDWNVGLSAEDLCTKECGWVQKVVQDLIPWDAGTDSGVTYESPNKPTIPQEKIRPLTSLDHPQSPFYDPEGGSITQVARVVIERIARKGEQCNIVPDNVDDIVADLAPEEKDEDDTPETCIYSNWSPWSACSSSTCDKGKRMRQRMLKAQLDLSVPCPDTQDFQPCMGPGCSDEDGSTCTMSEWITWSPCSISCGMGMRSRERYVKQFPEDGSVCTLPTEETEKCTVNEECSPSSCLMTEWGEWDECSATCGMGMKKRHRMIKMNPADGSMCKAETSQAEKCMMPECHTIPCLLSPWSEWSDCSVTCGKGMRTRQRMLKSLAELGDCNEDLEQVEKCMLPECPIDCELTEWSQWSECNKSCGKGHVIRTRMIQMEPQFGGAPCPETVQRKKCRIRKCLRNPSIQKLRWREARESRRSEQLKEESEGEQFPGCRMRPWTAWSECTKLCGGGIQERYMTVKKRFKSSQFTSCKDKKEIRACNVHPC | failed |
| MRLVERHIVKTNHQFYKEIDDLAWRSKNLYNYVNYLVRQSFIFDGKYLNNAAIFHLVKHHESYTALPRKVSNQVLMVLHRNWKSFFETHKAYKQNPSKFKGCPKLPKYKNKEKGRNIVIYELGAISKPLLKQGVIKLSQTEIQFPTKASNIQQVRLIPQCGQYVVEVVYLQDATPQQLNPDWVAGIDIGLDNLAALTSNKPGFKPVLVNGRPLKAINQQYNKAKARLQSQLKGNAKTSRRIQALTCKRNNRIDNYLHNASRWIINHLASAGIGTLVIGKNDQWKQEINLGTTTNQNFVSIPHARFIEQLKYKAELVAMTVLINEESYTSASSFLDLDPIPVYQEGVKHSFSGKRIKRAWYQSANGRFIHADINASLNITRKVVPAAFSLGIAGIAVCPSRITPGKVAI | failed |
| MRLVQLSRHSIAFPSPEGALREPNGLLALGGDLSPARLLMAYQRGIFPWFSPGDPILWWSPDPRAVLWPESLHISRSMKRFHKRSPYRVTMNYAFGQVIEGCASDREEGTWITRGVVEAYHRLHELGHAHSIEVWREBELVGGMYGVAQGTLFCGESMFSRMENASKTALLVFCEEFIGHGGKLIDCQVLNDHTASLGACEIPRRNYLNYLNQMRLGRLPNNFWVPRCLFSPQE | not failed |
| MRLYERSSCLLQPPDYSLMNDSTDAQDVSQARVWLWAARPKTLGAAVAPVLVGTGMALEAGAWHLLSALLALAGAVLIQVGVNYHNDYADYVQGADTQERVGPLRVTQAGLVAPQTMRRATILVFGLAVMAGLYLIARGGWPILAVGVASIGAAIWYTAGRYSLAALGLADVFVFVFFGPVAVGGTYYVQALSLPTEVLLAGGGPGLLSIGILLVNNVRDVAEDRRAGKRTLVVRFGRRFGVAAYGACLVGALLLAGLLAAGLFGTTPHPWAALPLGLLPLAIGPIRRLSETTDPEKLNPLLGATGRILVLWALLFAVGWNL | failed |
| MRLYKIGLVLLLWVFAVTAQAELRFPALSGRVVDDAQMIEPTISALLTRQLQAHEQATGEQLVVVTLPDLQGASIEEFGYQLGRHWGIGQKDKNNGALLIVARDERKLRIEVGYGLEERLTDAQASVIINQVITPAFKTGQFSKGISDGVSAMLLVLGGTPLDEPTTVYDSGDSSSQDDFVQRHPLLFIFLVLLFILVIMVAQALGLITTTSGRGGGGGGGFGGFGGGSGGGGGFSGGGGSFGGGGSSGGWLEHHHHHH | failed |
| MRMGVKDFAPSWFASVMGTGALALVSKSYSFKLPILEAFSKFLTYLNTIIFFVLLIPWLLRWIKYPSEAKKDLYHPVTSHFYGTMPIAMTIVAVNLAMFGYKEIALPLWILGSILVVIFAFLIPYLFFISEGVDVKTITPAWFIPPVGLIVIPLTSLPFVPSSVMWREVFIVLNYFGFGAGFFIYLALFAIVMRRFITHELLPPIMAPAVWINLGPLGAGAVALLNLAKIMPIAKSAFKAFAFILWGFGLWWLIMAILMTLHYLKNLHLPYSLAWWAFIFPLGAYVSATYNVGISIGITAMIEFGFALYWFLLALWLVTGIKTLVHDFSS | failed |
| MRMKPLKRSLPLLLALLLAACAGVKPPAAQPAQPETKPAAESGPDEAKLPKVALSPEILYGVLAGEIAARRGAAGSAGLTYLDLARETRDPRMAQRAAEFCLLSGQLKPATEALQLWIELDPESLPAREQLFITLMRGGKLAESKPLIEELLRLEPQRAPAIFVQLARLSARQDGGSAPSYRLVQELADRYPDLPEARFAVLAAAADNNDQAAVDRELNRLAGIAPKWDLPVAWQVDRLRRKDINEAADFLQRELARRPDAGLELQIAYPRLLVGAKRFPEARSAFEALLKTHPDNPDLLYATGLLAYQMRDLKTADDRLQRALARQYPEQDFVRYTLGQIAEDDRDAERAGNWYRQVGPGQQYLPAQSRLAMLEAADGRLDEALSRLSGLGGTDQEKVSLALLQSQLAREAKQPRRAYDLLTQALQRQPRSSELLYERSLVSDMLGNAGNAERDLRLILKDKPGDAQALNALGYTLANRTSRYQEAYGYIEKALKAEPDNPVIQDSMGWVQYKLGRLDAARKALEKAYAAMQDPEVGAHLGEVLWKQGRRDEALAVWRKELAQHPGHEVIAETMRRLGAKP | failed |
| MRNDRSFIELRARERAHALLDDGSYRELLDPFEGIMSPWLGAQGIVPQSDDGMVVAKGTINGQPAVVIAIEGTFQGGSMGEVSGAKMAAALELAAEDNRNGIPTQAVLCLETGGVRLQEANLGLAAIADIHAAIVDLRRYTPVVGIITGTVGCFGGMSIAAALCSYLIVTREARLGLNGPQVIEQEAGIEEYDSRNRPFIWSMTGGEIRAASGLVDALVNDGVNAVKTAMIEAIAKGVPAQHRSDNYDDYLRRLSQFDTRQQADTAQIKQLFAREDK | not failed |
| MRNIAVILAGGSGQRLGENIPKQFLKIAGKKVIEHTITVFQNHSLIDEIVVVVHPDYIRDVEDISLRNSFNKLKKILLGGKERYHSSLAAINAYDEEVNLLFHDSVRPLVNERIINDCIRALLTYNAVDVAIPTTDTIIQVDDNNEIVKIPSRILLRNGQTPQAFKRSVIKAAYEKALLDPLFKTTDDCGVVLKYLPDESIYVVNGEQFNMKLTYKEDIFLLDKLFQLRSIRNQPTLLEKSEMEELQGKVVVVFGGTYGIGQDICEICREYKTSLYVYSRSTGVDVSNSQSVRRVLSEIFDKEGRIDWIVNTAGILDKQPLANMSYEAVHQSIDVNYLGNIIVAKESFFYLKESKGSLLFFTSSSYTRGRALYSLYSSSKAAIVNFVQALSEEWFEYGIRVNCINPERTKTPMRIQNFGNEPEDTLLEPKVVAIVSVNTLLSEMTGEVVDVKRLEHHHHHH | failed |
